Measured values reported in the supplement of paper PMC10567573.

B1: TSN (parent)
chain: FLAAEQDIREEIRKVVQSLEQTAR
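Note: lentivirally expressed fusions sorted by FACS into six bins by GFP to DsRed ratio, PSI derived from sequencing read proportions per bin multiplied by bin number.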

Variants of: B1
Assay: protein stability index of a GFP-peptide fusion (GPS, HEK-293T) (PSI 1-6); higher = more stable
Details: c terminus: a fixed tail appended
In the case of FLAAEQDIREEIRKVVQSLEQIAR [T22I], the protein stability index is reported as 2.61. FLAAEQDIREEIRKVVQSLEQEAR [T22E] gave a protein stability index of 2.48. Work on FLAAEQDIREEIRKVVQSLEQGAR [T22G] yielded a protein stability index of 1.24. Variant FLAAEQDIREEIRKVVQSLEQCAR [T22C] has a protein stability index of 1.84. FLAAEQDIREEIRKVVQSLEQPAR [T22P] gave a protein stability index of 2.16. For FLAAEQDIREEIRKVVQSLEQKAR [T22K], the protein stability index was 1.95. FLAAEQDIREEIRKVVQSLEQMAR [T22M] showed a protein stability index of 2.57. FLAAEQDIREEIRKVVQSLEQRAR [T22R] showed a protein stability index of 2.99. For FLAAEQDIREEIRKVVQSLEQLAR [T22L], the protein stability index was 3.07. For FLAAEQDIREEIRKVVQSLEQFAR [T22F], the protein stability index was 2.42. For FLAAEQDIREEIRKVVQSLEQDAR [T22D], the protein stability index was 2.5. FLAAEQDIREEIRKVVQSLEQNAR [T22N] showed a protein stability index of 2.36. With FLAAEQDIREEIRKVVQSLEQQAR [T22Q] the protein stability index was 2.1. Work on FLAAEQDIREEIRKVVQSLEQAAR [T22A] yielded a protein stability index of 2.38. For FLAAEQDIREEIRKVVQSLEQHAR [T22H], the protein stability index was 1.67. With FLAAEQDIREEIRKVMQSLEQTAR [V16M] the protein stability index was 1.73. FLAAEQDIREEIRKVHQSLEQTAR [V16H] gave a protein stability index of 2.26. In the case of FLAAEQDIREEIRKVQQSLEQTAR [V16Q], the protein stability index is reported as 2.35. FLAAEQDIREEIRKVYQSLEQTAR [V16Y] gave a protein stability index of 2.83. In the case of FLAAEQDIREEIRKVTQSLEQTAR [V16T], the protein stability index is reported as 1.68. FLAAEQDIREEIRKVWQSLEQTAR [V16W] gave a protein stability index of 1.74. For FLAAEQDIREEIRKVGQSLEQTAR [V16G], the protein stability index was 3.36. Work on FLAAEQDIREEIRKVCQSLEQTAR [V16C] yielded a protein stability index of 2.13. For FLAAEQDIREEIRKVPQSLEQTAR [V16P], the protein stability index was 3.24. FLAAEQDIREEIRKVAQSLEQTAR [V16A] showed a protein stability index of 2.3. With FLAAEQDIREEIRKVSQSLEQTAR [V16S] the protein stability index was 1.93. FLAAEQDIREEIRKVKQSLEQTAR [V16K] gave a protein stability index of 2.38. FLAAEQDIREEIRKVEQSLEQTAR [V16E] showed a protein stability index of 2.21. In the case of FLAAEQDIREEIRKVFQSLEQTAR [V16F], the protein stability index is reported as 2.77. Work on FLAAEQDIREEIRKVNQSLEQTAR [V16N] yielded a protein stability index of 3.03. FLAAEQDIREEIRKVIQSLEQTAR [V16I] showed a protein stability index of 1.86. In the case of FLAAEQDIREEIRKVRQSLEQTAR [V16R], the protein stability index is reported as 2.15. FLAAEQDIREEIRKVDQSLEQTAR [V16D] gave a protein stability index of 3.78. With FLAAEQDIREEIRKVLQSLEQTAR [V16L] the protein stability index was 2.2. Variant FLAAEQDIREEWRKVVQSLEQTAR [I12W] has a protein stability index of 2.89. With FLAAEQDIREEYRKVVQSLEQTAR [I12Y] the protein stability index was 3.2. FLAAEQDIREEIRKVVQSLEVTAR [Q21V] gave a protein stability index of 1.5. Variant FLAAEQDIREEIRKVVQSLEYTAR [Q21Y] has a protein stability index of 1.64. For FLAAEQDIREEIRKVVQSLECTAR [Q21C], the protein stability index was 2.01. For FLAAEQDIREEIRKVVQSLEHTAR [Q21H], the protein stability index was 1.8. Work on FLAAEQDIREEIRKVVQSLENTAR [Q21N] yielded a protein stability index of 1.83. FLAAEQDIREEIRKVVQSLEMTAR [Q21M] gave a protein stability index of 1.68. FLAAEQDIREEIRKVVQSLEGTAR [Q21G] gave a protein stability index of 2.08. Variant FLAAEQDIREEIRKVVQSLEFTAR [Q21F] has a protein stability index of 1.81. With FLAAEQDIREEIRKVVQSLEWTAR [Q21W] the protein stability index was 1.87. For FLAAEQDIREEIRKVVQSLESTAR [Q21S], the protein stability index was 1.9. In the case of FLAAEQDIREEIRKVVQSLERTAR [Q21R], the protein stability index is reported as 2.15. Work on FLAAEQDIREEIRKVVQSLEATAR [Q21A] yielded a protein stability index of 2.14. Variant FLAAEQDIREEIRKVVQSLETTAR [Q21T] has a protein stability index of 1.92. Work on FLAAEQDIREEIRKVVQSLEKTAR [Q21K] yielded a protein stability index of 1.78. In the case of FLAAEQDIREEIRKVVQSLELTAR [Q21L], the protein stability index is reported as 1.91. FLAAEQDIREEIRKVVQSLEETAR [Q21E] gave a protein stability index of 1.9. FLAAEQDIREEIRKVVQSLEPTAR [Q21P] showed a protein stability index of 2.41. With FLAAEQDIREEIRKVVQSLEITAR [Q21I] the protein stability index was 2.27. With FLAAEQDIREEIRKVVQSLEDTAR [Q21D] the protein stability index was 1.78. For FLAAEQDIREEISKVVQSLEQTAR [R13S], the protein stability index was 2.12. For FLAAEQDIREEINKVVQSLEQTAR [R13N], the protein stability index was 2.16. Variant FLAAEQDIREEIIKVVQSLEQTAR [R13I] has a protein stability index of 1.43. In the case of FLAAEQDIREEIHKVVQSLEQTAR [R13H], the protein stability index is reported as 2.7. FLAAEQDIREEILKVVQSLEQTAR [R13L] gave a protein stability index of 1.83. Variant FLAAEQDIREEIEKVVQSLEQTAR [R13E] has a protein stability index of 1.89. In the case of FLAAEQDIREEIQKVVQSLEQTAR [R13Q], the protein stability index is reported as 2.14. FLAAEQDIREEICKVVQSLEQTAR [R13C] showed a protein stability index of 1.94. Variant FLAAEQDIREEIPKVVQSLEQTAR [R13P] has a protein stability index of 3.64. FLAAEQDIREEITKVVQSLEQTAR [R13T] gave a protein stability index of 2.82. FLAAEQDIREEIYKVVQSLEQTAR [R13Y] gave a protein stability index of 2.73. Variant FLAAEQDIREEIAKVVQSLEQTAR [R13A] has a protein stability index of 1.94. Variant FLAAEQDIREEIGKVVQSLEQTAR [R13G] has a protein stability index of 1.94. Work on FLAAEQDIREEIMKVVQSLEQTAR [R13M] yielded a protein stability index of 2.07. FLAAEQDIREEIKKVVQSLEQTAR [R13K] gave a protein stability index of 1.89. FLAAEQDIREEIWKVVQSLEQTAR [R13W] gave a protein stability index of 2.18. In the case of FLAAEQDIREEIFKVVQSLEQTAR [R13F], the protein stability index is reported as 1.55. Work on FLAAEQDIREEIVKVVQSLEQTAR [R13V] yielded a protein stability index of 1.66. FLAAEQDIREEIDKVVQSLEQTAR [R13D] showed a protein stability index of 1.84. FLAAEQDIREEIRKWVQSLEQTAR [V15W] showed a protein stability index of 2.4. Variant FLAAEQDIREEIRKFVQSLEQTAR [V15F] has a protein stability index of 2.96. Variant FLAAEQDIREEIRKYVQSLEQTAR [V15Y] has a protein stability index of 3.44. Work on FLAAEQDIREEIRKRVQSLEQTAR [V15R] yielded a protein stability index of 3.31. FLAAEQDIREEIRKPVQSLEQTAR [V15P] showed a protein stability index of 3. Variant FLAAEQDIREEIRKKVQSLEQTAR [V15K] has a protein stability index of 3.37. With FLAAEQDIREEIRKIVQSLEQTAR [V15I] the protein stability index was 2.19. With FLAAEQDIREEIRKAVQSLEQTAR [V15A] the protein stability index was 3.48. FLAAEQDIREEIRKDVQSLEQTAR [V15D] showed a protein stability index of 3.62. FLAAEQDIREEIRKEVQSLEQTAR [V15E] showed a protein stability index of 4.34. For FLAAEQDIREEIRKNVQSLEQTAR [V15N], the protein stability index was 3.76. Work on FLAAEQDIREEIRKHVQSLEQTAR [V15H] yielded a protein stability index of 2.8. With FLAAEQDIREEIRKCVQSLEQTAR [V15C] the protein stability index was 2.56. For FLAAEQDIREEIRKGVQSLEQTAR [V15G], the protein stability index was 3.29. FLAAEQDIREEIRKTVQSLEQTAR [V15T] showed a protein stability index of 2.61. With FLAAEQDIREEIRKMVQSLEQTAR [V15M] the protein stability index was 2.17. Work on FLAAEQDIREEIRKQVQSLEQTAR [V15Q] yielded a protein stability index of 3.54. Work on FLAAEQDIREEIRKLVQSLEQTAR [V15L] yielded a protein stability index of 2.48. FLAAEQDIREEIRKSVQSLEQTAR [V15S] gave a protein stability index of 3.07. For FLAAEQDIREEIRKVVQSLYQTAR [E20Y], the protein stability index was 2.07.
